From patent publication US9759725B2, “Treatment-induced damage to the tumor micro-environment promotes cancer therapy resistance through extracellular proteins” (Fred Hutchinson Cancer Research Center, priority 2012, dated 2017)
Entries after “also recorded” stand apart in the source; their conditions may differ.

B1: GDNF: glial cell line-derived neurotrophic factor, purified / human recombinant protein used to stimulate cells (protein)
chain: SPDKQMAVLPRRERNRQAAAANPENSRGKGRRGQRGKNRGCVLTAIHLNVTDLGLGYETKEELIFRYCSGSCDAAETTYDKILKNLSRNRRLVSDKVGQACCRPIAFDDDLSFLDDNLVYHILRKHSAKRCGCI

How the values were obtained:
Format in all cases: cell-based, human
PSC27 fibroblasts = test: Induction of DDSP factors in PSC27 fibroblasts with mTOR inhibition before ionizing radiation; details: summary statement
Method: The effects of inhibiting mTOR signaling in the context of genotoxic stress was evaluated. PSC27 fibroblasts were treated with Rapamycin (RAPA) prior to ionizing radiation.

epithelial CaP cells [1] = test: Proliferation of epithelial CaP cells on GDNF stimulation
Method: (§1) To study the effect GDNF has on tumor growth, we have used two experimental approaches have been used. 1) the effect of purified GDNF on cell proliferation of epithelial cells was analyzed and 2) GDNF over-expressing and secreting human prostate fibroblasts were generated which can also be used in co-culture and in vivo experiments. […] GDNF can act in the absence of RET via GFRA1 activating SFK pathways or through the activation of the RET/GFRA1 complex activating the Ras/Raf/Erk pathway. In our experiments we determined that both pathways were activated in GDNF sensitive cell lines (FIG. 23B). […] The number of epithelial cell lines are being expanded and analyzed after GDNF stimulation. GDNF-activated SFK and Erk pathways can lead to reduced sensitivity to pro-apoptotic treatments or decrease drug sensitivity.

epithelial CaP cells [2] = test: Src/SFK and Erk pathway activation in CaP cells on GDNF stimulation; details: GDNF responsive cells
Method: as §1

PSC27 stromal cells = test: SFK and Ras/Raf/Erk pathway activation in PSC27 stromal cells on GDNF stimulation
Text: Stimulation of epithelial CaP cells with GDNF leads to the activation of the SFK and the Ras/Raf/Erk pathways (FIG. 25). To determine if the same pathways are involved in the pro-proliferative effect on the PSC27 stromal cells, PSC27 cells were stimulated with hrGDNF or conditioned medium from PSC27/iGDNF-V5 cells. […] Additional more downstream effector proteins potentially involved in these effects are also being examined.

Molecule | suppression of key DDSP proteins including Wnt16B (PSC27 fibroblasts) | proliferation of Ret and GFRA1 negative cells (epithelial CaP cells [1]; after 3 or 5 days) | GDNF concentration of maximum stimulation of proliferation (epithelial CaP cells [1]; in the culture medium) | proliferation of cells expressing GDNF receptors Ret and/or GFRA1 (epithelial CaP cells [1]; increasing concentrations of GDNF) | Src (SFK) and Erk (Ras/Raf/Erk) pathways (epithelial CaP cells [2]) | Ras/Raf/Erk and SFK pathways in stromal cells (PSC27 stromal cells)
CO[C@H]1C[C@@H]2CC[C@@H](C)[C@@](O)(O2)C(=O)C(=O)N2CCCC[C@H]2C(=O)O[C@H]([C@H](C)C[C@@H]2CC[C@@H](OCCO)[C@H](OC)C2)CC(=O)[C@H](C)/C=C(\C)[C@@H](O)[C@@H](OC)C(=O)[C@H](C)C[C@H](C)/C=C/C=C/C=C/1C [RAD001] | effectively suppress |  |  |  |  | 
B1 |  | did not show any increase in proliferation; also recorded: do not show any differences in proliferation | around 10 ng/ml | induced cell proliferation; also recorded: increased proliferation | activated; also recorded: activation | stimulated; also recorded: activation
